This note sets out measurements from patent US20110281938A1.

This experiment deals with tissue factor:FVIIa complex (TF:FVIIa) (UniProt P13726). Description: cell-based or functional assay.
Chain of tissue factor:FVIIa complex (TF:FVIIa) (P13726 33-295 limits assumed, chain 1 of 2): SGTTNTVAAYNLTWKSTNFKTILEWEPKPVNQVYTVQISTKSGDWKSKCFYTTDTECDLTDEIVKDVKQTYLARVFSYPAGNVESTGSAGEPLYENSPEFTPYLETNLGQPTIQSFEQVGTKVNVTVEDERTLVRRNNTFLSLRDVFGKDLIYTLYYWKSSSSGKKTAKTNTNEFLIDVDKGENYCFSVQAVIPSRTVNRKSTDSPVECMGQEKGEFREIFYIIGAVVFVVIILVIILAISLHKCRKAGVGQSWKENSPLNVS
Chain of tissue factor:FVIIa complex (TF:FVIIa) (P08709 61-466 limits assumed, chain 2 of 2, further chain): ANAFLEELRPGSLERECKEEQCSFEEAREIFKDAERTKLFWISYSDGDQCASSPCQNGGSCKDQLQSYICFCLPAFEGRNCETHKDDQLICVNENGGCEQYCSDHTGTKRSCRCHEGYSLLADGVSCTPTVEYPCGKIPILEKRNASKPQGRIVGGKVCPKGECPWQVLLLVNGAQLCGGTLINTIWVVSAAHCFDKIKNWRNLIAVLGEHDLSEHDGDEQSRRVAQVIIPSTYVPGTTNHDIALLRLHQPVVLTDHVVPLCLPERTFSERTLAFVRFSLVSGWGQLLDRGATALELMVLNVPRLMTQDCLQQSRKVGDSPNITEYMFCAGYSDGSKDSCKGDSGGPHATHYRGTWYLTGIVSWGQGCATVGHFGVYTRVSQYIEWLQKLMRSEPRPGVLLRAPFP

“TFPI (source and species not stated; Examples 8, 12 and 45) (from UniProt P10646 29-304)” showed a rate of FXa generation at 4 minutes, extrinsic tenase (Xase) inhibition assay, 1 nM TFPI of 70%.
